Laboratory results as given in patent US20240117061A1.

Legend:
[1] = molecular target: recombinant cynomolgus monkey BCMA-huFc (cynomolgus monkey; human); assay: ELISA, hybridoma supernatant, dilution, immobilized cynoBCMA-huFc
[2] = molecular target: recombinant cynomolgus monkey BCMA-huFc (cynomolgus monkey; human); assay: ELISA, hybridoma supernatant, dilution 1:9, immobilized cynoBCMA-huFc
[3] = molecular target: recombinant cynomolgus monkey BCMA-huFc (cynomolgus monkey; human); assay: ELISA, hybridoma supernatant, dilution 1:27, immobilized cynoBCMA-huFc
[4] = molecular target: recombinant cynomolgus monkey BCMA-huFc (cynomolgus monkey; human); assay: ELISA, hybridoma supernatant, dilution 1:81, immobilized cynoBCMA-huFc
[5] = molecular target: recombinant cynomolgus monkey BCMA-huFc (cynomolgus monkey; human); assay: ELISA, hybridoma supernatant, dilution 1:243, immobilized cynoBCMA-huFc
[6] = molecular target: recombinant cynomolgus monkey BCMA-huFc (cynomolgus monkey; human); assay: ELISA, hybridoma supernatant, dilution 1:729, immobilized cynoBCMA-huFc
[7] = molecular target: recombinant cynomolgus monkey BCMA-huFc (cynomolgus monkey; human); assay: ELISA, hybridoma supernatant, stock solution, immobilized cynoBCMA-huFc
[8] = molecular target: recombinant cynomolgus monkey BCMA-huFc (cynomolgus monkey; human); assay: ELISA, hybridoma supernatant, dilution 1:2187, immobilized cynoBCMA-huFc

recombinant cynomolgus monkey BCMA-huFc (cynomolgus monkey; human), sequence (chain, as listed by the source limits assumed): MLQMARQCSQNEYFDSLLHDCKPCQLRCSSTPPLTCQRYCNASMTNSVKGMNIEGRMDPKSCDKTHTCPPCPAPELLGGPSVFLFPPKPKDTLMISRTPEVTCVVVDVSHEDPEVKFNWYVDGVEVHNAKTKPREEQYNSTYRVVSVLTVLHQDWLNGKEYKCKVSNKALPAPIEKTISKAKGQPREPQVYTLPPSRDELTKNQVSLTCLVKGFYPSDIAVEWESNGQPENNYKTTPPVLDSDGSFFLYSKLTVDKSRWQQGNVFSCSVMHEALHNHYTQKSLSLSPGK

ELISA result [1]: 0.31
ELISA result [2]: 0.18
ELISA result [3]: 0.15
ELISA result [4]: 0.14
ELISA result [5]: 0.15
ELISA result [6]: 0.13
ELISA result [7]: 0.75
ELISA result [8]: 0.12
B1: mouse monoclonal antibody 202E11H10E3 (antibody, V domains shown)
VH: QVQLQQSDAELVKPGTSVKISCKVSGYTFTDHTIHWMKQRPEQGLEWIGYIYPRNGNTKYNEKFKGKATLTADKSSSTAYMHLNSLTSEDSAVYFCARYDYDGYFDVWGTGTTVTVSS
VL: DVVMTQTPLSLPVSLGDQASISCRSSQSHVHSDGHTYLHWYLQKPGQSPELLIYKVSNRFSGVPDRFSGSGSGTDFTLKISRVEAEDLGVYFCSQNTHFPWTFGGGTKLEIK
